Measurements taken from the DeepSol protein solubility set.

Test: soluble on expression in E. coli; label from the status in PepcDB or PDB records

Sequence	soluble on expression in E. coli
MSLSKLPLLPTTVIGSYPRPKWLRESIRLHKAGKMSNEDLQEAFNDAVIAVFQDHYKAGVDVPTDGEVRRDEMVEFFAERIKGFKFYGPVRVWGTAYYRKPSVVSKIEYREPMLVDEFTFAKSVSYTDNLKITITGPYTIAEWSYNEYYRNKKDLVFDLAKAINQEIKNLVEAGAKIIQIDEPALHTRKEDVSWGVEAVNEAVKGVNAKLVMHICYGDYSFVAPYFNEIKVDQINFALKIYNYKPLELLKKYGFDKELGAGVVDVHNRKVETSEEVANDIRKILEYFPPEKVWINPDCGLKLLSRKIAYQKLVSMVEGTKVVREELKRKGYSVDEGHHHHHH	not soluble
MAHHHHHHMGNTVPYNCYERWGKRTPDGPLLNYDPQMPNSGTLSVLLENFDYESTEESNNKCEYIINKEPIEKNNNMNPKVIRNARRRPTYSPTARKINIQSDDEEEDEDDDEKLSTDDSDENISAKDIKDEKIQQYRKTLTKIVKIKTAIFHETVKVTCSKDGKMLEWYKGKNDSDGKKKPIGSFPLNKITSIRTKVDNLKSLEISVSSVHISTYLFTFKTREERESWQNNLESFRKIMSMK	not soluble
NLPNIVILATGGTIAGSAAANTQTTGYKAGALGVETLIQAVPELKTLANIKGEQVASIGSENMTSDVLLTLSKRVNELLARSDVDGVVITHGTDTLDESPYFLNLTVKSDKPVVFVAAMRPATAISADGPMNLYGAVKVAADKNSRGRGVLVVLNDRIGSARFISKTNASTLDTFKAPEEGYLGVIIGDKIYYQTRLDKVHTTRSVFDVTNVDKLPAVDIIYGYQDDPEYMYDASIKHGVKGIVYAGMGAGSVSKRGDAGIRKAESKGIVVVRSSRTGSGIVPPDAGQPGLVADSLSPAKSRILLMLALTKTTNPAVIQDYFHAY	soluble
MNELLQDRVPPQNIEAEQAVLGSIFLDADVLIEAMEYVEPKDFYRRSHQLIFQTMMTLSDRNEAIDVVTIKDRLEQENLLEDVGGLSYLSDLALAVPTAANVIYYAKIVEQKSLLRNLIQTATEIVTKGFEQGEDVESILDDAERSILEVSEKRNRSGFLSISDVLNTTIANIDQLYQNDEEITGLPTGYQALDKMTAGLQAEELIILAARPAVGKTAFALNIAQNVGTKTDKAVAIFSLEMGAESLVNRMLCAEGSIEASHLRTGQLSEEEWQNLIIAMGSLSRANIYIDDTPGIKITEIRAKCRKLAQEKGNLGLILIDYLQLIEGTGKENRQQEVSDISRQLKKLAKELKVPVIALSQLSRGVEQRQDKRPVLSDIRESGSIEQDADIVAFLYRDDYYDRGEGEDGDHEPPEVDNVVEVIIEKNRSGARGTVELLFIKEYNKFSSLSPRTEF	not soluble
MGSSHHHHHHSSGENLYFQGHMDVLASGEKSRMLFERTKELFPGGVNSPVRAAVKPYPFYVKRGEGAYLYTVDGARIVDLVLAYGPLILGHKHPRVLEAVEEALARGWLYGAPGEAEVLLAEKILGYVKRGGMIRFVNSGTEATMTAIRLARGYTGRDLILKFDGCYHGSHDAVLVAAGSAAAHYGVPTSAGVPEAVARLTLVTPYNDVEALERVFAEYGDRIAGVIVEPVIANAGVIPPRREFLAALQRLSRESGALLILDEVVTGFRLGLEGAQGYFNIEGDIIVLGKIIGGGFPVGAVAGSREVMSLLTPQGKVFNAGTFNAHPITMAAGLATLKALEEEPVYSVSREAAKALEEAASEVLDRTGLPYTINRVESMMQLFIGVEEVSNAAQARKADKKFYVKLHEEMLRRGVFIAPSNLEAVFTGLPHQGEALEIAVEGLRSSLKTVLGS	soluble
MNNQNNNFVDFSEDDDMMDADFLGVVIPDDLMNASLEFQRTEPFSFIPAEEDLAPMEILPNNQGDVEMTAVDKNPDKVLFELRVETQIEPTLNYINAENEAVEWDIKSYYDFDNPQRPAQADEAATYQENGYGFVDFQPFAQQQQPAYNGNEPEFLIQRMQITDETYANAHFHQNEYAIEEKPSLFSPSSTPSYCCTSGPISPAYTPIGNNANACAPTRSRRTSTASNKSGGKIGKVAKLGEKSSGEKRTRMTKAEMSRLTEKEKLERKKEQNRANAKNCVKNRNNSKEELKQTLEMLREKVQEAKRQNEMQENGLLAAYETNIFAVQGNNFPYGSLELFYDQLQGSKAEAVEQVQYDNNGEVVQLEEAFNKTEQDYGQYTSVKKIAGLPQNTFASKKSRAKTAFEIADHQLNLKKEEVELREANAIKVVLNQITRELNRYMDGAKLAEQQAFDENFQQFEPS	not soluble
MGHHHHHHSHMAVVRATSADVDLMARLLRAEAEGEGKQGMLLVGNVGINRLRANCSDFKGLRTIRQMIYQPHAFEAVTHGYFYQRARDSERALARGSINGERRWPAKFSLWYFRPQGDCPAQWYNQPFVARFKSHCFYQPTAETCENVYNTF	not soluble
MSLNNVKLLIAGSAFFAMSAQAADRVSIDVKVTLEAAACTPILSNGGVVNFGSHSVNRLSTQHYTQIGTRNINMTITCESATGIAITARDTRMDSMTTGKDSGGQSGVKYTLNGGGYISQTTRLFGLGKTKDNKNIGSYAVLIDSNNISASNGSQTLAVSIAGADAVITGQKRAWQTLTAYPLAVDQSYYYTFVKPGETTPTPVTNAIIPLQVSASIANDLGGSEKIELDGKAVISVVYLEGHHHHHH	not soluble
MAHHHHHHMKQVKAAFEANKRVYESVLLTFKGVDGYDVYNCSVPFSYKGKTHIYGRVEKRDIWAASHVRLFEETGKDEFTAVPELSWELEDPYIAKINNEMIFGGTRVRKNGNAILSYYGYFYRGTPDELTYFTRGPGCMKDIRVLQLQDGRLGVFSRPRVGRKASIGFVILNSIDELGAEVIAKAPPLDILSENAWGGVNQAYLLSSGKVGCIGHYSYEDTNEKQQPQSVYVNYAFVLDPQSRAITGAKIIGTKSCYPPCEPKVPLLADCVFASGIVMRSDGKVDLYSGVGDSHEGRITIDYPFKGHGTIIGDLHFPMASSL	soluble
VDNVFIVGHRKLDMDALGSAVGMQFFAGNIIENSFAVYNPDEMSPDIERAIERLQADGKTRLISVSQAMGLVTPRSLLVMVDHSKISLTLSKEFYEQFQNVIVVDHHRRDDDFPDNAILTFIESGASSAAELVTELIQFQNAKKCLNKIQASVLMAGIMLDTKNFSTRVTSRTFDVASYLRSKGSDSVEIQNISATD	not soluble
MLCFFDPGNFDIGDSVNDVEVKFNRAWTSVIGTKIDFAEKYSINIEGYYKYVFDRGYITADTSTGTITPSFNFDGVGKVWGFDIQLQKLESRYWDGWISYTYTWAKYNDPSGGNNGISNGSTNTINDSWYYPSFHRFHNFNLVLNIKPLLWFNIALRFGFASGQPRRRIDNKIYPYPVLIVNEDNEMVILQKYRRNSWYDENERTPWSFPLDIKFSFFPVNKNGRTSMEIYAAGENMMSLFYSPPGRTTFNQYTGKEDQGSSSGSFDLPIPMVSFGIKWRY	not soluble
MHVFYSEERRGNLLILREGEVKHFRVRRIEKDEEFGVIHEGKIYVCKVRREDKREISCEIVEELETKLPPKDITLYQSVTVDLKTMDTIVRQATELGVLTFVPIISERSFQKEEAILKKTEKWKRIVIEAMKQSRRPIPMEIKKPVRLSDLIPESEENIILDNFYEGVKPKDVNLEAKTYSVVVGPEGGFSKRESQILREKGFKSVLLEPYTLRTETAVVSIVSILMNFLEHHHHHH	soluble
MGSDKIHHHHHHMSLNKNLNDIEKSQLIELMHESLRIRSHFELFLWMQGKLQVFLPHEIMITAWGDFSLGVIYFNIVSPLPGIRSDKIASHEINQFLQNLFNYWLNHAKAPFTLAAADNILHDCEFSNKESSYYLKNMKSALVHAIKDHRGRHDCLYVLLSSNLSFPPASRPMLEALLPYIDSALRQIEHLPEQQPTLIKAEPEPKDESLNILSGRELEIMDWVTKGKTNQEIGMILDISAFTVKNHLQRIFKKLNVMNRAQAVAKFRK	not soluble
MGSDKIHHHHHHMSVLYDTIGIDYANLRKPDLRIAAQIDAALGDAQSVLNVGAGAGSYEPAGRAVTALEPSAEMIAQRPEGTAPVVQGPAEDLPFADNSFDAAMAVLTIHHWSDKARGLAEMRRVARNRAVLLTYDPAFRGQWQTEYWPGLIGLDDGAMPPMAFFEEHLGPVDTQPVLVPHDCSDGFLYAYWRRPQAYLDPRIRKGSSGFWMIDGVEEGAQRLQADLASGAWAARHAALLERENADMGYRLVIADLV	not soluble
MAQPSTTYKFELNLTDLDRNVYESVKQTIARHPSETEERMAVRLLAYALWYNENLSFGRGLSDVDEPALWEKSLDDRVLHWIEVGQPDADRLTWCSRRTERTSLLAYGSLRVWEGKVVSAVKNLKNLSIAAVPQEVLETLATDMPRSIKWDVMISEGTVFVTDDRGQHEVQLQWLLGERG	not soluble
MILTEVSQPTEGIKLATTNVQAFFKIDSLGNGTLYITDSAVIWISSAAGTKGFSVAYPAIVLHAISTDVSVFPSEHIFVMVDQRKSVRRRRRAPVLRTIQEDDEQRGLELAAAELEDEESDDDEEEPALEIRFVPDDKDSLSQIYHQIAVGQEENPEEDDPMYDDEEEEMEEEMGDDGQGQSGQWFTADNIDHMQMSEEGLANMQRIFGRGDQHQHHHNEDESME	not soluble
MQKEPRKVREFRRREQEILDTALKLFLEQGEDSVTVEMIADAVGIGKGTIYKHFKSKAEIYLRLMLDYERDLNELLHSADVDKDKEALSRAYFEFRMRDPQRYRLFDRLEEKVVKGNQVPELVEELHKIRASNFEHLTLLIKGRITEGKLEDVPPYYHYCAAWALVHGAVALYHSPFWSNVLEDQEGFFNFLMDIGVRMGNKRKRDTDVPAEPKPDPDV	not soluble
MTDTNTLLVTSLEEGIGKTAITLALATRAHDAGYDVGYMKPKGTRLRSAVGKTRDEDPMLARELLDLETDLHDMEPIVYSPTFIQEAIRGREDPDDLRERLQEGIETCSDGTDMLLVEGSSDLATGSIVDLTDIDIAELLDARVLLVTGYDTPSDTDEILSAAEAIGDRLDGVLFNGVTDATVDELADDVVPFLEGEGIPVHGILPRDRSLAGVTVADLARNLGADILTGDANTDVHVERFSVGAMSGSSALERFRRTRDAVVVTGGDRSEVQTAALEASGINALLLTGGFQPASAVIGQAAEKNVPVLSVQSDTRTTIDRVEEVLRTGQTRNEATVDRMRTLLDDGVDVESLLSVDLLEHHHHHH	soluble
MNFENLLIELGTEELPPKALRKLAESFLANFTEELTKADLAFKSAVWYAAPRRLALNITELAIAQADKIVEKRGPAVSSAFDAGGKPTKAAEGWARGNGITVDQAERLVTDKGEWLVYNAKVEGVETKSLVAAMAQRALDKLPIPKPMRWGSSKTQFIRPVHTATMLLGSELIEGELLGIKSARNIRGHRFMGTGFELDHADNYLTLLKEKGKVIADYESRKALIKADAEKAAAKIGGTADIEDALLEEVTSLVEWPVVLTASFEEKFLSVPSEALVYTMKGDQKYFPVFDDAGKLLPNFIFVANIESKDPAQIISGNEKVVRPRLADAEFFFNTDKKHTLESRLPSLETVLFQQQLGTLKDKVTRISALAAFIAEQTGANAVDAARAGLLSKTDLMTNMVMEFTDTQGTMGMHYARLDGETEAVALAMEEQYKPKFSGDTVPTAAVSCAVALADKLDTLVGIFGIGQAPKGAADPFALRRAAIGVLRIIVENKLPLDLVTLIAKAQELHGANLSNANASEEVLEFLMARFRAWYQDKGINVDVILAVLARRPTR	not soluble
MAHHHHHHMPSWCLIESDPAVFTELIQRFGAQGVAVEEIVQLEQEYLRVHTNVYGLILLFKWKARKEGAATDGVVVPDAPVFFVQQTVNNACATLSIVNILLNHKESIELGEVLGNFLSFTQDMNPYLRGTQVGECDALREAHNSFAPVELFSLDHSVPDAGDAYHFVSFVYKNSAIWELDGLQEGPILASDASDENYRDKLMEVVRKRIRDHSAEDTTGAGQGISFSLMAVVDDPLVLLERRIYEATLQEAPTHYLEEQLNQLTKQRAREKLENQRRRHNYVPMIVELLKALAEKGQLKGILDDALAKKSGQGAKQ	soluble
